This note sets out measurements from US20250282833A1.

The target in assay [1] is Anc80 AAV capsid viral protein VP1.
The target of assay [2] is AdV5 pVIII (human adenovirus C serotype 5) (UniProt P24936).
For assay [3], the target named is AdV5 Fiber (human adenovirus C serotype 5) (UniProt P11818).
In assay [4] the target is T1, AdV5 pV (human adenovirus C serotype 5) (UniProt P24938).
T1 sequence: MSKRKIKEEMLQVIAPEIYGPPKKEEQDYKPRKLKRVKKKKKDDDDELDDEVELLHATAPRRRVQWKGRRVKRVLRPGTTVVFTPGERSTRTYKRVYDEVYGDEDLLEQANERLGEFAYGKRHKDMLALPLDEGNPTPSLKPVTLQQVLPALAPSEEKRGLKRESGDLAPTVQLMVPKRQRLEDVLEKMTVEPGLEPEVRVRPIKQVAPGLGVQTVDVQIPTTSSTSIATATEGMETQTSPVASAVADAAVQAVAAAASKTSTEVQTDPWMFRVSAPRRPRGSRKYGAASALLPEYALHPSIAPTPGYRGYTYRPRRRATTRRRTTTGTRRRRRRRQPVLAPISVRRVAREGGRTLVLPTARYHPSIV

Assay [5] has as its target AdV5 Penton base (human adenovirus C serotype 5) (UniProt P12538).
Assay [6] addresses AdV5 pTP (human adenovirus C serotype 5) (UniProt P04499).
Assay [7] deals with AdV5 pVI (human adenovirus C serotype 5) (UniProt P24937).
The target of assay [8] is AdV5 AVP (human adenovirus C serotype 5) (UniProt P03253).
Assay [9] addresses AdV5 pIX (human adenovirus C serotype 5) (UniProt P03281).
The target of assay [10] is T2, AdV5 pIVa2 (human adenovirus C serotype 5) (UniProt P03271).
T2 sequence: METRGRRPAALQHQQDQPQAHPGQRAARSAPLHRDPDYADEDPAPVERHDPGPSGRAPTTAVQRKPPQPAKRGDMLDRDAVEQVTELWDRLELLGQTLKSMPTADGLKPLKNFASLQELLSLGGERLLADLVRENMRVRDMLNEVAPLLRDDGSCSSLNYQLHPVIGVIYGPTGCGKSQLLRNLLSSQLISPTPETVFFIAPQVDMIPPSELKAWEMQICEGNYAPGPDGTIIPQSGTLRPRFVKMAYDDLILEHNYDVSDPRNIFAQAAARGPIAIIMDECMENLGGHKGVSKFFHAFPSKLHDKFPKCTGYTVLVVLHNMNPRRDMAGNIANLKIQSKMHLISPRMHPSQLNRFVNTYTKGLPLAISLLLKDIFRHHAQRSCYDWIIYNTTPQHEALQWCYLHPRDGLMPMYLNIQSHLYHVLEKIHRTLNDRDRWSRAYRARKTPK

Assay [11] deals with AdV5 Hexon (human adenovirus C serotype 5) (UniProt P04133).
In assay [12] the target is T3, AdV5 pIIIa (human adenovirus C serotype 5) (UniProt P12537).
T3 sequence: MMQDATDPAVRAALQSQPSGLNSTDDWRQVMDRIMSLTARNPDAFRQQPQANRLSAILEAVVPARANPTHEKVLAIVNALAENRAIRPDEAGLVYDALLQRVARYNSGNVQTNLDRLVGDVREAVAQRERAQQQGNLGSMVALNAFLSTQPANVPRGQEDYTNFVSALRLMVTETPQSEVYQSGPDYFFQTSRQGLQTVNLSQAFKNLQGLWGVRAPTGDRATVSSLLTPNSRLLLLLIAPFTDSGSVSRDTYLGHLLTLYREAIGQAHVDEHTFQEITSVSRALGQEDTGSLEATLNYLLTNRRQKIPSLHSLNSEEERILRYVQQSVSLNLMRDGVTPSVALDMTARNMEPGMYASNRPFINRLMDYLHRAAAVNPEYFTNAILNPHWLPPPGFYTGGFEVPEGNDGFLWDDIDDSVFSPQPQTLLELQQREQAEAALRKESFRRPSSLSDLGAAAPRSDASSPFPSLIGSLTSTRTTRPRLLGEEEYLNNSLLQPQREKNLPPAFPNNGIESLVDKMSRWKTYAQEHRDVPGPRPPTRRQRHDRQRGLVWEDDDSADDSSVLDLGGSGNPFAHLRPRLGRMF

The target in assay [13] is T4, AdV5 pµ (human adenovirus C serotype 5) (UniProt Q2KS10).
T4 sequence: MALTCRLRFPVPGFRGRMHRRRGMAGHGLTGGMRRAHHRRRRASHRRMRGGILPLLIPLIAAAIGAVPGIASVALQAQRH

Assay [14] addresses T5, AdV5 pVII (human adenovirus C serotype 5) (UniProt P68951).
T5 sequence (chain, acetylation at S2 (100.0%)): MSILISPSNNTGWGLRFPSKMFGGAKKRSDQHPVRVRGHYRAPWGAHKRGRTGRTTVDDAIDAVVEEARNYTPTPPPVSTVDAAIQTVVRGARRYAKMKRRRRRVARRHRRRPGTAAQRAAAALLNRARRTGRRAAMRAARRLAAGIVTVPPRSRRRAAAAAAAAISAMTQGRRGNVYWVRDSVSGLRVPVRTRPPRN

Chain of Sequencing grade trypsin (P00761 9-231 limits assumed): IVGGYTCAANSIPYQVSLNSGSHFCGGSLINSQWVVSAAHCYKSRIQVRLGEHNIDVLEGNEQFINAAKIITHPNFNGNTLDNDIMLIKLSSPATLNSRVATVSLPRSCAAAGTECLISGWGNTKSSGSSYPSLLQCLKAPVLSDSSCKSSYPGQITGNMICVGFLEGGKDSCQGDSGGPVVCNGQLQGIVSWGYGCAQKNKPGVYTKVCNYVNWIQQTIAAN
Chain of AdV5 Penton base (human adenovirus C serotype 5) (P12538 whole entry): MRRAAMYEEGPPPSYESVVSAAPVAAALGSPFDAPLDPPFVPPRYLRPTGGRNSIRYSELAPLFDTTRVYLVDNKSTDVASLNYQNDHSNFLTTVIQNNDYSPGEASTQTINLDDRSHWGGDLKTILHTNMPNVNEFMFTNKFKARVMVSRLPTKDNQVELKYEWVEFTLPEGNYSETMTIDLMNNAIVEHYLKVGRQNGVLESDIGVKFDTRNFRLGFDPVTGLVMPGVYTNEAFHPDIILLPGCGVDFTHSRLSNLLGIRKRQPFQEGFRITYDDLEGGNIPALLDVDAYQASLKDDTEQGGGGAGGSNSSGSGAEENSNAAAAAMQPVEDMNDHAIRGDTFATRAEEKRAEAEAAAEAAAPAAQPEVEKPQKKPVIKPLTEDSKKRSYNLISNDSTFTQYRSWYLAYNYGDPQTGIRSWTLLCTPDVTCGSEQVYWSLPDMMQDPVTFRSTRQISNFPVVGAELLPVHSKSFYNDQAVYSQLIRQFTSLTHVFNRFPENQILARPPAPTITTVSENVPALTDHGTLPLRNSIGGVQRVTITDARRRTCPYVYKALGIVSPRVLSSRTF

As to Asp-N protease (enzyme), the sequence coverage by LC-MS/MS after Asp-N digestion in assay [1] was 99.2%.

In the case of “Sequencing grade trypsin (from UniProt P00761) (enzyme)”, the Sequence Coverage (%) by LC-MS/MS after trypsin digestion was found to be 93.8% in assay [2]; 89.2% in [3]; 94.3% in [4]; 98.9% in assay [5]; 55.1% in [6]; 98.6% in [7]. The Sequence Coverage (%) by LC-MS/MS after trypsin digestion in [8] is 91.7%; in assay [9] it was 99.3%; in assay [10] it was 84.2%; in [11] it was 91.4%; in [12], 99.1%; in assay [13] it was 92.5%. Also, the Sequence Coverage (%) by LC-MS/MS after trypsin digestion in assay [14] was found to be 91.9%.
